In the supplement of paper PMC11316812:
± gives the standard deviation of the averaged measurements.

Key:
hTERT-HMEC = experiment: percentage of EdU-negative (G0-arrested) nuclei per well, 72 h; higher = more G0 arrest; conditions: reference: sequence is the full UniProt precursor, the tested protein was the secreted form or ectodomain
MCF7 = experiment: as above; conditions: reference: sequence is the full UniProt precursor, the tested protein was the secreted form or ectodomain
[1] = protein concentration 0.0334286 µM
[2] = protein concentration 0.334286 µM
[3] = protein concentration 0.0225 µM
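Also: secreted proteins added to cultured cells, EdU pulse at the end, nuclei found by Hoechst imaging, EdU status from nuclear versus surrounding ring intensity ratio, PBS as neutral control.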

Sequence | percentage of EdU-negative (hTERT-HMEC; [3]) [%] | percentage of EdU-negative (hTERT-HMEC; protein concentration 0.225 µM) [%] | percentage of EdU-negative (MCF7; [3]) [%] | percentage of EdU-negative (MCF7; protein concentration 0.225 µM) [%] | further results
MKLDMTGDCTPVLVLMAAVLTVTGAVPVARLHGALPDARGCHIAQFKSLSPQELQAFKRAKDALEESLLLKDCRCHSRLFPRTWDLRQLQVRERPMALEAELALTLKVLEATADTDPALVDVLDQPLHTLHHILSQFRACIQPQPTAGPRTRGRLHHWLYRLQEAPKKESPGCLEASVTFNLFRLLTRDLNCVASGDLCV [Q8IZJ0] |  |  |  |  | percentage of EdU-negative (hTERT-HMEC; [1]): 5.29 ± 0.59%; percentage of EdU-negative (hTERT-HMEC; [2]): 9.88 ± 1.6%; percentage of EdU-negative (MCF7; [1]): 22.9 ± 3.6%; percentage of EdU-negative (MCF7; [2]): 25.9 ± 4.6%
MKLGLLCALLSLLAGHGWADTRAIGAEECRPNSQPWQAGLFHLTRLFCGATLISDRWLLTAAHCRKPYLWVRLGEHHLWKWEGPEQLFRVTDFFPHPGFNKDLSANDHNDDIMLIRLPRQARLSPAVQPLNLSQTCVSPGMQCLISGWGAVSSPKALFPVTLQCANISILENKLCHWAYPGHISDSMLCAGLWEGGRGSCQGDSGGPLVCNGTLAGVVSGGAEPCSRPRRPAVYTSVCHYLDWIQEIMEN [Q9UKQ9] | 5.253 ± 0.046 | 5.62 ± 1.2 | 26.66 ± 0.14 | 29.4 ± 2.3 | 
MKLHYVAVLTLAILMFLTWLPESLSCNKALCASDVSKCLIQELCQCRPGEGNCSCCKECMLCLGALWDECCDCVGMCNPRNYSDTPPTSKSTVEELHEPIPSLFRALTEGDTQLNWNIVSFPVAEELSHHENLVSFLETVNQPHHQNVSVPSNNVHAPYSSDKEHMCTVVYFDDCMSIHQCKISCESMGASKYRWFHNACCECIGPECIDYGSKTVKCMNCMF [Q9GZX9] | 4.64 ± 0.11 | 12.59 ± 0.086 | 23.8 ± 4.6 | 28.8 ± 0.54 | 
MKLITILFLCSRLLLSLTQESQSEEIDCNDKDLFKAVDAALKKYNSQNQSNNQFVLYRITEATKTVGSDTFYSFKYEIKEGDCPVQSGKTWQDCEYKDAAKAATGECTATVGKRSSTKFSVATQTCQITPAEGPVVTAQYDCLGCVHPISTQSPDLEPILRHGIQYFNNNTQHSSLFMLNEVKRAQRQVVAGLNFRITYSIVQTNCSKENFLFLTPDCKSLWNGDTGECTDNAYIDIQLRIASFSQNCDIYPGKDFVQPPTKICVGCPRDIPTNSPELEETLTHTITKLNAENNATFYFKIDNVKKARVQVVAGKKYFIDFVARETTCSKESNEELTESCETKKLGQSLDCNAEVYVVPWEKKIYPTVNCQPLGMISLMKRPPGFSPFRSSRIGEIKEETTVSPPHTSMAPAQDEERDSGKEQGHTRRHDWGHEKQRKHNLGHGHKHERDQGHGHQRGHGLGHGHEQQHGLGHGHKFKLDDDLEHQGGHVLDHGHKHKHGHGHGKHKNKGKKNGKHNGWKTEHLASSSEDSTTPSAQTQEKTEGPTPIPSLAKPGVTVTFSDFQDSDLIATMMPPISPAPIQSDDDWIPDIQIDPNGLSFNPISDFPDTTSPKCPGRPWKSVSEINPTTQMKESYYFDLTDGLS |  |  |  |  | percentage of EdU-negative (hTERT-HMEC; protein concentration 0.006 µM): 4.85 ± 0.42%; percentage of EdU-negative (hTERT-HMEC; protein concentration 0.06 µM): 6.72 ± 0.15%; percentage of EdU-negative (MCF7; protein concentration 0.006 µM): 24.3 ± 0.58%; percentage of EdU-negative (MCF7; protein concentration 0.06 µM): 26.5 ± 0.67%
MKLKLKNVFLAYFLVSIAGLLYALVQLGQPCDCLPPLRAAAEQLRQKDLRISQLQAELRRPPPAPAQPPEPEALPTIYVVTPTYARLVQKAELVRLSQTLSLVPRLHWLLVEDAEGPTPLVSGLLAASGLLFTHLVVLTPKAQRLREGEPGWVHPRGVEQRNKALDWLRGRGGAVGGEKDPPPPGTQGVVYFADDDNTYSRELFEEMRWTRGVSVWPVGLVGGLRFEGPQVQDGRVVGFHTAWEPSRPFPVDMAGFAVALPLLLDKPNAQFDSTAPRGHLESSLLSHLVDPKDLEPRAANCTRVLVWHTRTEKPKMKQEEQLQRQGRGSDPAIEV | 6.2 ± 0.23 | 9.73 ± 0.47 | 24 ± 0.88 | 27.1 ± 1.6 | 
MKLLFPIFASLMLQYQVNTEFIGLRRCLMGLGRCRDHCNVDEKEIQKCKMKKCCVGPKVVKLIKNYLQYGTPNVLNEDVQEMLKPAKNSSAVIQRKHILSVLPQIKSTSFFANTNFVIIPNATPMNSATISTMTPGQITYTATSTKSNTKESRDSATASPPPAPPPPNILPTPSLELEEAEEQ [Q9H1M3] | 4.86 ± 0.34 | 4.66 ± 0.73 | 23.2 ± 1.2 | 25.3 ± 1.1 | 
MKLLHVFLLFLCFHLRFCKVTYTSQEDLVEKKCLAKKYTHLSCDKVFCQPWQRCIEGTCVCKLPYQCPKNGTAVCATNRRSFPTYCQQKSLECLHPGTKFLNNGTCTAEGKFSVSLKHGNTDSEGIVEVKLVDQDKTMFICKSSWSMREANVACLDLGFQQGADTQRRFKLSDLSINSTECLHVHCRGLETSLAECTFTKRRTMGYQDFADVVCYTQKADSPMDDFFQCVNGKYISQMKACDGINDCGDQSDELCCKACQGKGFHCKSGVCIPSQYQCNGEVDCITGEDEVGCAGFASVTQEETEILTADMDAERRRIKSLLPKLSCGVKNRMHIRRKRIVGGKRAQLGDLPWQVAIKDASGITCGGIYIGGCWILTAAHCLRASKTHRYQIWTTVVDWIHPDLKRIVIEYVDRIIFHENYNAGTYQNDIALIEMKKDGNKKDCELPRSIPACVPWSPYLFQPNDTCIVSGWGREKDNERVFSLQWGEVKLISNCSKFYGNRFYEKEMECAGTYDGSIDACKGDSGGPLVCMDANNVTYVWGVVSWGENCGKPEFPGVYTKVANYFDWISYHVGRPFISQYNV |  |  |  |  | percentage of EdU-negative (hTERT-HMEC; protein concentration 0.021 µM): 4.11 ± 0.1%; percentage of EdU-negative (hTERT-HMEC; protein concentration 0.21 µM): 4.288 ± 0.024%; percentage of EdU-negative (MCF7; protein concentration 0.021 µM): 24.6 ± 0.98%; percentage of EdU-negative (MCF7; protein concentration 0.21 µM): 27.3 ± 1.3%
MKLMVLVFTIGLTLLLGVQAMPANRLSCYRKILKDHNCHNLPEGVADLTQIDVNVQDHFWDGKGCEMICYCNFSELLCCPKDVFFGPKISFVIPCNNQ | 5.85 ± 0.5 | 6.71 ± 0.2 | 25.5 ± 2.2 | 25.5 ± 3.6 | 
MKLNLVQIFFMLLMLLLGLGMGLGLGLHMATAVLEESDQPLNEFWSSDSQDKAEATEEGDGTQTTETLVLSNKEVVQPGWPEDPILGEDEVGGNKMLRASALFQSNKDYLRLDQTDRECNDMMAHKMKEPSQSCIAQYAFIHEDLNTVKAVCNSPVIACELKGGKCHKSSRPFDLTLCELSQPDQVTPNCNYLTSVIKKHIIITCNDMKRQLPTGQ [Q5GAN6] | 5.66 ± 1.3 | 5.77 ± 0.33 | 27.3 ± 3.4 | 25.2 ± 0.41 | 
